The text below walks through data of patent publication US20060287236A1.

This test deals with endogenous peptides. Briefly: acid eluate of purified heterodimer, Edman pool sequencing.

B1: soluble rat FcRn heterodimer (receptor, part only; not given: light chain, UniProt P13599 23-291, looked up, part only)
MHC heavy: AEPRLPLMYHLAAVSDLSTGLPSFWATGWLGAQQYLTYNNLRQEADPCGAWIWENQVSWYWEKETTDLKSKEQLFLEAIRTLENQINGTFTLQGLLGCELAPDNSSLPTAVFALNGEEFMRFNPRTGNWSGEWPETDIVGNLWMKQPEAARKESEFLLTSCPERLLGHLERGRQNLEWKEPPSMRLKARPGNSGSSVLTCAAFSFYPPELKFRFLRNGLASGSGNCSTGPNGDGSFHAWSLLEVKRGDEHHYQCQVEHEGLAQPLTVDL
The molecule B1 had a pmole of amino acids recovered from acid elution, cycle 1 of 5.9 pmol; a pmole of amino acids recovered from acid elution, cycle 2 of 4.7 pmol; a pmole of amino acids recovered from acid elution, cycle 3 of 0.7 pmol; a pmole of amino acids recovered from acid elution, cycle 4 of 7.6 pmol. Besides, the pmole of amino acids recovered from acid elution, cycle 5 is 0 pmol; the pmole of amino acids recovered from acid elution, cycle 6 was determined as 0 pmol; the pmole of amino acids recovered from acid elution, cycle 7 was determined as 0.2 pmol; the pmole of amino acids recovered from acid elution, cycle 8 was found to be 0.6 pmol. The pmole of amino acids recovered from acid elution, cycle 9 came to 9.5 pmol and the pmole of amino acids recovered from acid elution, cycle 10 worked out at 0.3 pmol.
